Assays:
[1] = biological target: T1, human FcγRIIIa F (allotype F158) extracellular domain (human, UniProt P08637 17-208); assay: SPR Biacore 8K+; KD for FcγRIIb divided by KD for this FcγR
T1 construct: extracellular domain; also called hFcγRIIIaF
Protocol: (§1) The extracellular domains of FcγRs were produced by the method described in WO2014104165. The interaction between the produced antibodies and human FcγRs was analyzed using Biacore 8K+by the method below. For the running buffer, 50 mM Na-Phosphate, 150 mM NaCl, and 0.05% Tween20 (pH 7.4) was used, and measurement was performed at 25° C. The sensor chip used was a Series S SA chip (GE Healthcare) onto which CaptureSelect Human Fab-kappa Kinetics Biotin Conjugate (Thermo Fisher Scientific) was immobilized. An antibody of interest was captured onto this chip, and each FcγR diluted with the running buffer was allowed to interact with it. The chip was regenerated using 10 mM Glycine-HCl (pH 1.5), and repeatedly used to capture antibodies and perform measurement. The dissociation constants KD (mol/L) of each antibody for FcγRs were calculated using Biacore Insight Evaluation Software, with a steady state affinity model for the dissociation constant for FcγRIIb and a 1:1 Langmuir binding model for the dissociation constants for the other FcγRs (Table 2).

[2] = biological target: T2, human FcγRIIIa V (allotype V158) extracellular domain (human, UniProt P08637 17-208); assay: as above
T2 construct: extracellular domain; also called hFcγRIIIaV
T2 sequence (P08637 17-208 F176V): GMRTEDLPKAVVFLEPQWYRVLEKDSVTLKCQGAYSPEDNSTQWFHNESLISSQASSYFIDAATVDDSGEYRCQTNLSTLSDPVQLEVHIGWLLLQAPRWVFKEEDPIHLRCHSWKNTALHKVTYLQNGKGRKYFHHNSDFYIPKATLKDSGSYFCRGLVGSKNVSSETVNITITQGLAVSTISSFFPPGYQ
Protocol: as §1

T1 sequence (P08637 17-208): as the sequence (P08637 17-208 F176V) above, with V160F counted along it

A/I ratio (KD for FcγRIIb divided by KD for each FcγR) [1]: 975
A/I ratio (KD for FcγRIIb divided by KD for each FcγR) [2]: 2030
B1: EGL-ART6 (H240-Kn462/L73-k0//H240-HI445/L73-k0) (antibody, human IgG1, kappa)
heavy 1: QDQLVQSGAEVKKPGASVKVSCKASGFNIKDTYIQWVRQAPGQGLEWMGRIDPLRKQTKYREKFEGRVTITADTSTNTAYMELSSLRSEDTAVYYCVRSGREFDYWGQGTLVTVSSASTKGPSVFPLAPSSKSTSGGTAALGCLVKDYFPEPVTVSWNSGALTSGVHTFPAVLQSSGLYSLSSVVTVPSSSLGTQTYICNVNHKPSNTKVDKKVEPKSCDKTHTCPPCPAPEFQWGPMVFLFPPKPKDVLMISRTPEVTCVVVDVSDEEPEVKFNWYVDGVEVHNAKTKPREEQYNATYRVVSVLPVLHQDWLNGKEYKCKVSNDALPAPIEKTISKAKGQPREPQVCTLPPSRDELTKNQVSLWCLVKGFYPSDIAVEWESNGQPENNYKTTPPVLDSDGSFFLYSKLTVDKSRWQQGNVFSCSVMHEALHNHYTQKSLSLSP
heavy 2: QDQLVQSGAEVKKPGASVKVSCKASGFNIKDTYIQWVRQAPGQGLEWMGRIDPLRKQTKYREKFEGRVTITADTSTNTAYMELSSLRSEDTAVYYCVRSGREFDYWGQGTLVTVSSASTKGPSVFPLAPSSKSTSGGTAALGCLVKDYFPEPVTVSWNSGALTSGVHTFPAVLQSSGLYSLSSVVTVPSSSLGTQTYICNVNHKPSNTKVDKKVEPKSCDKTHTCPPCPAPELLAGPSVFLFPPKPKDVLMISRTPEVTCVVVDVSHEEPEVKFNWYVDGVEVHNAKTKPREEQYNATYRVVSVLPVLHQDWLNGKEYKCKVSNDALPKPDEETISKAKGQPREPQVYTLPPSRCELTKNQVSLSCAVKGFYPSDIAVEWESNGQPENNYKTTPPVLDSDGSFFLVSKLTVDKSRWQQGNVFSCSVMHEALHNHYTQKSLSLSP
light: DIQMTQSPSSLSASVGDRVTITCRASQDIHKYIAWYQQKPGQAPRLLIQYTSTLQPGVPSRFSGSGSGTDYTFTISSLQPEDIATYYCLQYEQLRTFGGGTKVEIKRTVAAPSVFIFPPSDEQLKSGTASVVCLLNNFYPREAKVQWKVDNALQSGNSQESVTEQDSKDSTYSLSSTLTLSKADYEKHKVYACEVTHQGLSSPVTKSFNRGEC
notes: Anti-human Epiregulin IgG1 with heterodimeric (knobs-into-holes) Fc variant

Source: patent publication US20230416371A1 (Chugai, published 2023)
